From paper PMC8112169 (Molecules and Cells, 2021)

B1: Num1 (97-195), N-terminal half of Num1CC (domain or fragment, Saccharomyces cerevisiae, UniProt Q00402 97-195, looked up)
chain: MNFTLELSENLLVECRKLQSSNEAKNEQIKSLKQIKESLSDKIEELTNQKKSFMKELDSTKDLNWDLESKLTNLSMECRQLKELKKKTEKSWNDEKESL
B2: Num1 (97-175) (domain or fragment, Saccharomyces cerevisiae, UniProt Q00402 97-175, looked up)
chain: MNFTLELSENLLVECRKLQSSNEAKNEQIKSLKQIKESLSDKIEELTNQKKSFMKELDSTKDLNWDLESKLTNLSMECR
B3: coiled-coil domain of Num1 (residues 97-294) (domain or fragment, Saccharomyces cerevisiae, UniProt Q00402 97-294, looked up)
chain: MNFTLELSENLLVECRKLQSSNEAKNEQIKSLKQIKESLSDKIEELTNQKKSFMKELDSTKDLNWDLESKLTNLSMECRQLKELKKKTEKSWNDEKESLKLLKTDLEILTLTKNGMENDLSSQKLHYDKEISELKERILDLNNENDRLLISVSDLTSEINSLQSNRTERIKIQKQLDDAKASISSLKRKVQKKYYQKQ
B4: full-length Mdm36 (residues 1-579) (natural protein, Saccharomyces cerevisiae, UniProt Q06820 1-579, looked up)
chain: MDENGTVKPGYELKGLNSGNSRSNMDKDPIVSKFHRAGLNDSADEEDTDINGNRNTSWITSMISEEKRKVEGKSMLNDEEDLHLSKATLNKCDALVKILADIIKLEFVIHQSWYIRSLHKSVLIQFEVETSGGNKNSAGDSGDDDDDNHNGNLDDSFYKDLSLKCIKKCEKSSLALESLSRDIDQIRDFIMSNTIEDNRVDRLLQNSMTLLLECWIYSMKRLRRLRMKIAGIFVRSKLLLIDHELVTIWHFLQEQNEHETVNNENELKLAETIKSYRAFIKIFIQQLEDSESGSPSSSLFEECLHVFLDIESMYNSLNLNWLLNENKALQERLLSPSSTSENDHTNNLPVIDETKEIEDISSFVNSIVDASMLTHDLTPINSSDSDNLSNGEIDRLDGRRLSSSTSDMSLMMQRTSLQKQLPSLLTAFNNARRLEQELQNACKVNDNKHSTKDTDSNIRRNEHAMSSSVSSIISQNSTLASPSPPMSSSFISTAPSQSSSRMSTLPLSPSSSLLESQSQTLKNNMSQWLNQSRSGLNGTKLIPTNHIGFHSNVLNTLYGIGGGPVSKSYKSNQPSSQNT

Tests used:
[1] = target: B4; experiment: SEC
[2] = target: the molecule itself; experiment: SEC-MALS
[3] = target: B4; experiment: ITC

## B1
[1]
  binding result: binds

## B2
[1]
  binding result: binds

## B3
[2]
  stoichiometry N: 2
[3]
  Kd: 121 nM
  stoichiometry N: 1 Num1CC per Mdm36 (1:1)

## B4
[2]
  stoichiometry N: 2
